{"source": "the supplement of paper PMC10126150", "note": "± gives the standard deviation of the averaged measurements.", "data": [{"test_system": "ATP", "experiment": "switch fluorescence ratio, 500 uM ATP over buffer (Cy3 cluster intensity, sum of 5 cycles each) (fold (ratio)); higher = stronger signal-on switching upon ATP binding; sequences stand for … in TCGTCGGCAGCGTCAGATGTGTATAAGAGACAGTTTTTTTTTTTTTTTTTTTTTTTTT…TC", "conditions": "aptamer strand: ATP DNA aptamer (quencher-CACCTGGGGGAGTATTGCGGAGGAAGG + anchor), 100 nM annealed; ATP concentration: 500 uM", "in_short": "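Exposure to 500 uM ATP lasted 15 min at 22 °C before imaging, and a selection-buffer image was taken beforehand, for Cy3-labelled switching-strand clusters on a modified Illumina MiSeq flow-cell annealed to 100 nM quencher-labelled ATP aptamer. Five buffer/ATP cycles were run with NaOH stripping and re-annealing between them. The fluorescence ratio per cluster is summed target-cycle over summed buffer-cycle Cy3 intensity, averaged per switch-domain sequence. Clusters outside 100-1000 RFU were excluded.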", "values": [{"sequence": "TTTCCGGCGG", "switch fluorescence ratio": "1.12 ± 0.09"}, {"sequence": "TTTCCGGGGA", "switch fluorescence ratio": "1.18 ± 0.29"}, {"sequence": "TTTCCTATAA", "switch fluorescence ratio": "1.13 ± 0.21"}, {"sequence": "TTTCGATGGT", "switch fluorescence ratio": "0.959 ± 0.019"}, {"sequence": "TTTCGCCATA", "switch fluorescence ratio": "2.39 ± 2"}, {"sequence": "TTTCGCTC", "switch fluorescence ratio": "1.06 ± 0.019"}, {"sequence": "TTTCGCTCGT", "switch fluorescence ratio": "0.9628 ± 0.003"}, {"sequence": "TTTCGGACGC", "switch fluorescence ratio": "1.35 ± 0.33"}, {"sequence": "TTTCGGAGGG", "switch fluorescence ratio": "0.982 ± 0.034"}, {"sequence": "TTTCGGAGTT", "switch fluorescence ratio": "1.05 ± 0.071"}, {"sequence": "TTTCGGATAA", "switch fluorescence ratio": "1.02 ± 0.056"}, {"sequence": "TTTCGGATGC", "switch fluorescence ratio": "1.22 ± 0.26"}, {"sequence": "TTTCGGATTC", "switch fluorescence ratio": "1.08 ± 0.059"}, {"sequence": "TTTCGGGACC", "switch fluorescence ratio": "1.04 ± 0.031"}, {"sequence": "TTTCGGGACG", "switch fluorescence ratio": "0.987 ± 0.035"}, {"sequence": "TTTCGGGCAG", "switch fluorescence ratio": "1.02 ± 0.037"}, {"sequence": "TTTCGGGGAT", "switch fluorescence ratio": "1.03 ± 0.038"}, {"sequence": "TTTCGGGTAG", "switch fluorescence ratio": "1.011 ± 0.0014"}, {"sequence": "TTTCGGTCTG", "switch fluorescence ratio": "1.006 ± 0.0075"}, {"sequence": "TTTCGGTGCT", "switch fluorescence ratio": "1.03 ± 0.049"}, {"sequence": "TTTCGGTTAA", "switch fluorescence ratio": "1.09 ± 0.11"}, {"sequence": "TTTCGGTTCA", "switch fluorescence ratio": "1.037 ± 0.0044"}, {"sequence": "TTTCGTAATT", "switch fluorescence ratio": "1 ± 0.024"}, {"sequence": "TTTCGTATAC", "switch fluorescence ratio": "2.1 ± 0.041"}, {"sequence": "TTTCGTCCTT", "switch fluorescence ratio": "1.18 ± 0.014"}, {"sequence": "TTTCGTCGAA", "switch fluorescence ratio": "1.017 ± 0.01"}, {"sequence": "TTTCGTGCGG", "switch fluorescence ratio": "1 ± 0.015"}, {"sequence": "TTTCGTGTGT", "switch fluorescence ratio": "0.97 ± 0.0097"}, {"sequence": "TTTCGTTCAT", "switch fluorescence ratio": "1.033 ± 0.0078"}, {"sequence": "TTTCGTTCTC", "switch fluorescence ratio": "1.008 ± 0.0045"}, {"sequence": "TTTCGTTGAA", "switch fluorescence ratio": "0.9964 ± 0.0069"}, {"sequence": "TTTCTAACGT", "switch fluorescence ratio": "1.001 ± 0.0026"}, {"sequence": "TTTCTAAGGG", "switch fluorescence ratio": "1.07 ± 0.061"}, {"sequence": "TTTCTAAGTC", "switch fluorescence ratio": "0.9559 ± 0.006"}, {"sequence": "TTTCTAATTT", "switch fluorescence ratio": "1.02 ± 0.015"}, {"sequence": "TTTCTACGTA", "switch fluorescence ratio": "1.13 ± 0.14"}, {"sequence": "TTTCTAGACA", "switch fluorescence ratio": "1.02 ± 0.021"}, {"sequence": "TTTCTAGTCT", "switch fluorescence ratio": "0.935 ± 0.0085"}, {"sequence": "TTTCTATGGA", "switch fluorescence ratio": "1.0135 ± 0.0006"}, {"sequence": "TTTCTATTTT", "switch fluorescence ratio": "1.02 ± 0.066"}, {"sequence": "TTTCTCAGAG", "switch fluorescence ratio": "0.995 ± 0.016"}, {"sequence": "TTTCTCCGGT", "switch fluorescence ratio": "1.53 ± 0.39"}, {"sequence": "TTTCTCGGCA", "switch fluorescence ratio": "1.44 ± 0.42"}, {"sequence": "TTTCTCTGAG", "switch fluorescence ratio": "1.04 ± 0.033"}, {"sequence": "TTTCTGACGT", "switch fluorescence ratio": "1.09 ± 0.057"}, {"sequence": "TTTCTGGGTC", "switch fluorescence ratio": "1.02 ± 0.068"}, {"sequence": "TTTCTGTAAG", "switch fluorescence ratio": "1.01 ± 0.036"}, {"sequence": "TTTCTGTGGA", "switch fluorescence ratio": "0.9892 ± 0.0091"}, {"sequence": "TTTCTTAGAG", "switch fluorescence ratio": "0.992 ± 0.038"}, {"sequence": "TTTCTTAGGT", "switch fluorescence ratio": "1.03 ± 0.014"}, {"sequence": "TTTCTTAGTT", "switch fluorescence ratio": "1.04 ± 0.017"}, {"sequence": "TTTCTTCGCT", "switch fluorescence ratio": "1.01 ± 0.046"}, {"sequence": "TTTCTTCTCA", "switch fluorescence ratio": "1.01 ± 0.024"}, {"sequence": "TTTCTTTATC", "switch fluorescence ratio": "0.974 ± 0.017"}, {"sequence": "TTTCTTTCTC", "switch fluorescence ratio": "1.02 ± 0.026"}, {"sequence": "TTTCTTTTTT", "switch fluorescence ratio": "1 ± 0.024"}, {"sequence": "TTTGAAAACG", "switch fluorescence ratio": "1.02 ± 0.033"}, {"sequence": "TTTGAAAGAA", "switch fluorescence ratio": "0.9779 ± 0.0054"}, {"sequence": "TTTGAAAGTT", "switch fluorescence ratio": "1.01 ± 0.015"}, {"sequence": "TTTGAAATAC", "switch fluorescence ratio": "2.2 ± 0.025"}, {"sequence": "TTTGAACGCT", "switch fluorescence ratio": "1.06 ± 0.015"}, {"sequence": "TTTGAAGACA", "switch fluorescence ratio": "0.991 ± 0.028"}, {"sequence": "TTTGAAGACT", "switch fluorescence ratio": "0.98 ± 0.028"}, {"sequence": "TTTGAAGGAT", "switch fluorescence ratio": "1.29 ± 0.35"}, {"sequence": "TTTGAAGTCA", "switch fluorescence ratio": "1 ± 0.022"}, {"sequence": "TTTGAATTCG", "switch fluorescence ratio": "1.009 ± 0.0022"}, {"sequence": "TTTGAATTTT", "switch fluorescence ratio": "0.998 ± 0.024"}, {"sequence": "TTTGACAGGA", "switch fluorescence ratio": "1.06 ± 0.057"}, {"sequence": "TTTGACATGT", "switch fluorescence ratio": "0.975 ± 0.038"}, {"sequence": "TTTGACGCGC", "switch fluorescence ratio": "1.16 ± 0.13"}, {"sequence": "TTTGACGGGA", "switch fluorescence ratio": "1.01 ± 0.012"}, {"sequence": "TTTGACGGTA", "switch fluorescence ratio": "1.09 ± 0.016"}, {"sequence": "TTTGACTAGG", "switch fluorescence ratio": "1.01 ± 0.038"}, {"sequence": "TTTGACTTCA", "switch fluorescence ratio": "1.03 ± 0.018"}, {"sequence": "TTTGACTTTT", "switch fluorescence ratio": "0.994 ± 0.028"}, {"sequence": "TTTGAGAAGC", "switch fluorescence ratio": "0.992 ± 0.026"}, {"sequence": "TTTGAGGAAG", "switch fluorescence ratio": "1.01 ± 0.022"}, {"sequence": "TTTGAGGACT", "switch fluorescence ratio": "0.992 ± 0.025"}, {"sequence": "TTTGAGGCCA", "switch fluorescence ratio": "1.04 ± 0.061"}, {"sequence": "TTTGAGGGGG", "switch fluorescence ratio": "1.01 ± 0.066"}, {"sequence": "TTTGAGGTGA", "switch fluorescence ratio": "1.04 ± 0.07"}, {"sequence": "TTTGAGTCGG", "switch fluorescence ratio": "0.957 ± 0.0034"}, {"sequence": "TTTGAGTTGT", "switch fluorescence ratio": "0.962 ± 0.035"}, {"sequence": "TTTGATAGT", "switch fluorescence ratio": "1 ± 0.021"}, {"sequence": "TTTGATATTT", "switch fluorescence ratio": "1.11 ± 0.22"}, {"sequence": "TTTGATCAAG", "switch fluorescence ratio": "1.021 ± 0.008"}, {"sequence": "TTTGATCGGA", "switch fluorescence ratio": "0.965 ± 0.062"}, {"sequence": "TTTGATCTAT", "switch fluorescence ratio": "0.989 ± 0.028"}, {"sequence": "TTTGATCTCG", "switch fluorescence ratio": "1.0054 ± 0.00071"}, {"sequence": "TTTGATCTGC", "switch fluorescence ratio": "0.961 ± 0.031"}, {"sequence": "TTTGATGATA", "switch fluorescence ratio": "0.981 ± 0.014"}, {"sequence": "TTTGATGCAT", "switch fluorescence ratio": "1.03 ± 0.026"}, {"sequence": "TTTGATGCGT", "switch fluorescence ratio": "1.018 ± 0.0095"}, {"sequence": "TTTGATTTGC", "switch fluorescence ratio": "0.961 ± 0.042"}, {"sequence": "TTTGATTTTC", "switch fluorescence ratio": "0.976 ± 0.049"}, {"sequence": "TTTGCAAGGG", "switch fluorescence ratio": "1.81 ± 1.2"}, {"sequence": "TTTGCATCTA", "switch fluorescence ratio": "1.0306 ± 0.00072"}, {"sequence": "TTTGCCAGTT", "switch fluorescence ratio": "0.9847 ± 0.0019"}, {"sequence": "TTTGCCCCCT", "switch fluorescence ratio": "1.04 ± 0.051"}, {"sequence": "TTTGCCCTGG", "switch fluorescence ratio": "1.1 ± 0.08"}]}]}
